Variants at the floor of the assay were thinned out.
B1: TPR 5TU (parent)
chain: GGAUCUUCUCGAUCUAACAAAAAAGACAAAUCUGCCACAAAGCUUGAGAGCAUCUUCGGAUGCAGAGGCGGCAGCCUUCGGUGGCGCGAUAGCGCCAACGUUCUCAACUAUGACACGCAAAACGCGUGCUCCGUUGAAUGGAGUUUAUCAUG

Variants of: B1
Assay: polymerase ribozyme fitness, log enrichment relative to wild type (log ratio); higher = more active; in vitro selection for triplet polymerase activity
Method in brief: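 The heterodimeric triplet polymerase ribozyme's subunits were each mutagenized into PCR-built libraries and transcribed. Every library was selected once, in triplicate, by annealing with a biotinylated primer, the partner subunit and triplets, incubating frozen at −7 °C, gel-excising extended constructs, capturing on streptavidin beads and running RT-PCR. Input and output libraries were Illumina-sequenced, with genotypes kept only at ≥10 input reads and ≥1 read per output. Fitness, from inverse-variance-weighted replicate averages, is the base-2 logarithm of genotype enrichment over wild-type enrichment.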

Row | Variant | polymerase ribozyme fitness (log ratio)
1 | C36G G62C G84U | ≤ -4.2
2 | C36U U61G | -2.22
3 | A37G U56A G84A C85U G133C | -4.13
4 | A37C G70A C85A G92A C93A | ≤ -4.2
5 | C36U C99U U145A | -1.47
6 | C35U G86U C95G | -3.9
7 | C36U A52U C75G G88C C105A C114G A115G | ≤ -4.2
8 | A37U A142G G152U | -4.13
9 | A37U G88U G92C A122G G133U G143A A150U | -4.06
10 | A37C C95U C103G C118G | ≤ -4.2
11 | A37C A52U C96A | -2.87
12 | A37G U44A A52C G86U C95U U101G U144C | ≤ -4.2
13 | A37C G59A G81A C96A | -2.74
14 | C36U A142G | -2.16
15 | C36U G59C C95A | -1.64
16 | A37G C96A U102A C131U G136U | ≤ -4.2
17 | C36U G42A C76U G143A | ≤ -4.2
18 | A37C C85U G88C A137U | ≤ -4.2
19 | C36G C87G A91C A98U C114U A119U A122G | ≤ -4.2
20 | A37U A52G C76A C96U C131G | ≤ -4.2
21 | C36G U56A G94U A97C A120U C125U | ≤ -4.2
22 | C36U G62A C72U | -3.23
23 | A37G U55A A66G C75U C85A A122U | ≤ -4.2
24 | A37U A121G G152U | -3.84

Row | Variant | polymerase ribozyme fitness (log ratio)
25 | C36A C87U G140C | ≤ -4.2
26 | A37C U53A U78A C85A | ≤ -4.2
27 | C36G G59U C105G | ≤ -4.2
28 | C36A C75U G83A A89C C99G C105U C123A C125A | ≤ -4.2
29 | A37C G50U G59U G86U | -2.65
30 | A37U C85G C125U G141A | ≤ -4.2
31 | C36G U146G | -3.97
32 | A37C G83A A122U C131U U134C | 0.318
33 | C36U C75G C96G A121U | ≤ -4.2
34 | C36A G84U C114A A120U G143U | -4.19
35 | C36A U56G G68C A98G C103A A121U | ≤ -4.2
36 | C36A C75A C87G A106U C149G | ≤ -4.2
37 | C36A A73G C96U A121C C131U | ≤ -4.2
38 | C36A A122U G126A G136C | ≤ -4.2
39 | A37C | 0.064
40 | A37U | -1.11
41 | A37G | -1.24
42 | A37C C43U A73C U77C C93U C116A U135G G136U | ≤ -4.2
43 | C35U U101G A110U A138G | ≤ -4.2
44 | A37G G84A U101G A120G | -2.6
45 | C36U G92C C116U C118U U144C | ≤ -4.2
46 | A37C G84A U101G G126C U135C | -3.6
47 | C36G G83U C125A G141C U145A | -4.09
48 | C35U U44A C54A C87U A110U | ≤ -4.2

Row | Variant | polymerase ribozyme fitness (log ratio)
49 | C35U U44A A49C G74U G80A U109G A121G | ≤ -4.2
50 | C36A C85U A89U C96G | ≤ -4.2
51 | A37U G83C A91C A98G G124U | ≤ -4.2
52 | C36A G59A U144G | -3.49
53 | C36U A41G C95A A122G | -0.35
54 | A37G A64G G80A G88U G143A | ≤ -4.2
55 | A37C C57U G86A C95G C99G C131U | ≤ -4.2
56 | A37C A47U G58A U61G A91G A107C A113G A138U | ≤ -4.2
57 | C36A U82A A98G | -4.01
58 | A37G A97G A98G | -2.55
59 | A37C A64U A66G C85A A107G | ≤ -4.2
60 | C36A A40C G83C A106G U144A | ≤ -4.2
61 | C36A A39C U56C C87U U144G | ≤ -4.2
62 | C36A C96U U111G | ≤ -4.2
63 | A37C A49C A91G G94A C96U A106G | ≤ -4.2
64 | C36U C69G A73G C87A G100U G112C G141C | ≤ -4.2
65 | C36A A66C G81A A91C C93U | ≤ -4.2
66 | A37G C96U C105G | -3.63
67 | C35U G94A C108A A150U | ≤ -4.2
68 | C35U U56A U61A C63U A64G | ≤ -4.2
69 | C35U U53A | -0.557
70 | C36A C85U | -3.7
71 | A37U G59C C149G | ≤ -4.2
72 | C36U A41G G83C G84U C116U | -4.09

Row | Variant | polymerase ribozyme fitness (log ratio)
73 | C36U A60C C63U C103G | ≤ -4.2
74 | A37U C95G | -3.51
75 | C36U U134G U148A | -4.04
76 | C36A A66C | ≤ -4.2
77 | C36U A64C G136A U145C A147C | ≤ -4.2
78 | A37C C96G U101G A150C U151A | ≤ -4.2
79 | A37C A52C G84A | -3.24
80 | C36U G81A C93G G136A | ≤ -4.2
81 | C36U A40G C43G U55A A91C G126A G141U | ≤ -4.2
82 | A37C C95U | -2.04
83 | A37C C95G | -2.69
84 | C35U G88A A115C A119G | -3.86
85 | A37U C87U | -0.99
86 | A37C C96G A106G | -0.258
87 | C36U C95G C108A | -3.89
88 | A37G C93U G117A G128A | -4.18
89 | C35U U55G A91G A106G G141A | ≤ -4.2
90 | A37G U55G C85G | -3.49
91 | A37C A60C C69U C85A U146G | -3.76
92 | A37C U77C G92A C96A U139C | ≤ -4.2
93 | A37G A39C C87A C116U G136A | ≤ -4.2
94 | C36U G128C G140U | ≤ -4.2
95 | A37G G58C C85A | -3.83
96 | A37U G68U C118A | ≤ -4.2

Row | Variant | polymerase ribozyme fitness (log ratio)
97 | A37C G92A U146G | -4.01
98 | C36U U145A G152A | -3
99 | A37C G58C G65A | -3.6
100 | C36U U102G C108A C116U A122G | ≤ -4.2
101 | A37G A39U G50A A142U | ≤ -4.2
102 | A37G U45G C57G C95U | -3.33
103 | A37C A49C G59C G83C C95A A122U G143U A150G | ≤ -4.2
104 | C36U C95U | -1.98
105 | C36A U56G G141U | ≤ -4.2
106 | C36A G42A U45G G81A C87A A137C | ≤ -4.2
107 | A37C G46A U61A G74A C93U A122U | ≤ -4.2
108 | A37G C51U A66U G83A U151G | ≤ -4.2
109 | A37U C85A C93U G141C A147C | ≤ -4.2
110 | A37C U55G G94A | 0.0696
111 | A37C G71U G86A A106U C132G U145G | ≤ -4.2
112 | C36A C87G A107C | ≤ -4.2
113 | A37G G83U G84A A142G | ≤ -4.2
114 | A37C G83U C93G A97G G100U | ≤ -4.2
115 | C36U C54A G58A G70A G84A C95A A115U G143U | ≤ -4.2
116 | A37G A52C A97C | -3.67
117 | A37C C103G | -3.6
118 | A37U C96U G126U | -2.91
119 | A37U C54U C93U | -2.44
120 | C35U G92A A122G | -3.92

Row | Variant | polymerase ribozyme fitness (log ratio)
121 | C36G A97G | -3.56
122 | C36U C38U G83A A121U | -1.34
123 | A37U A52G C76U C95A | -2.41
124 | A37U G94A | -1
125 | C36A G46C C79U G88U U151A | ≤ -4.2
126 | A37U C51G G88A | ≤ -4.2
127 | A37C C95U G141C | -1.7
128 | C35U U56A C57A A97U C123U U130C | -0.0554
129 | A37C G70C C87U U127C | ≤ -4.2
130 | A37G C85U | -2.1
131 | C36A U45A U61A C87U A97C G126A | ≤ -4.2
132 | C36A A52C C85G A120G A122U U148A | -3.85
133 | C36U C54G A66C G84U C95A U101G | ≤ -4.2
134 | C36U C38A A91U C103A C116A | ≤ -4.2
135 | A37C U55A G133C U144A | -2.6
136 | C36A A98U A113U C118U U148A | ≤ -4.2
137 | A37C C75G G80A C149G | ≤ -4.2
138 | A37G G124A | -2.19
139 | C36A C96A G133A | ≤ -4.2
140 | A37U G80C G81C U102A A110U C118G A120U G133U | ≤ -4.2
141 | A37G A52C C95U A98C | -3.46
142 | A37G C38A G48U | -2.25
143 | A37G C51U C72U C95A A138U G143U | ≤ -4.2
144 | A37U A64U | ≤ -4.2

Row | Variant | polymerase ribozyme fitness (log ratio)
145 | A37C A40U G83A C93G A142G | ≤ -4.2
146 | C36G G86A G117U U130A G140A | ≤ -4.2
147 | A37U A115C A119C | -2.95
148 | C36A C105U U127G | ≤ -4.2
149 | A37C A41G G86C G92U C95U | -3.05
150 | A37G G117U | -2.18
151 | A37G A52G U55A U56A C85U C103U U145A | -3.09
152 | C36U U55A | -0.574
153 | C36G G65A G83A A98C | ≤ -4.2
154 | A37C G48A C51U G86C G88A | ≤ -4.2
155 | A37C A47C G88A G100A A137U | ≤ -4.2
156 | A37U G42A C85A A138G | ≤ -4.2
157 | A37C A41C U53G G59A G84A C103A U145A | ≤ -4.2
158 | A37U A40C U55A G58A G59A G84C G126A | -4.07
159 | A37G C95G C114U A119U A120G | ≤ -4.2
160 | C36U A66G G112A A142U | ≤ -4.2
161 | A37C A97U | -0.373
162 | A37C A49G C93U | -2.86
163 | C35U U45A G83C C85G A97G G141C | ≤ -4.2
164 | A37U C75A C85U G112C G124C C132G A142G U145A | ≤ -4.2
165 | C36A C95U | -3.7
166 | A37U G86U | -3.44
167 | C36U A52G U61A C95A A122U U144A | ≤ -4.2

From the RNAGym collection of RNA variant scans (doi:10.1073/pnas.2313332121)
